Three molecules from US20260242735A1 (UNIVERSIT T BASEL, published 2026) can be followed below.

First the molecules themselves.
B1: Refmab #4 (antibody, V domains shown)
VH: QVQLVQSGAEVKKPGESVKVSCKASGYTFTNYGMNWVKQAPGQGLEWMGWINTYTGEPTYADKFQGRVTMTTDTSTSTAYMEIRNLGGDDTAVYYCARWSWSDGYYVYFDYWGQGTSVTVSS
VL: DIVMTQSPDSLTVSLGERTTINCKSSQSVLDSSTNKNSLAWYQQKPGQPPKLLLSWASTRESGIPDRFSGSGSGTDFTLTIDSPQPEDSATYYCQQSAHFPITFGQGTRLEIK
notes: The alanine scan used IgG or Fab
B2: Refmab #2 (antibody, V domains shown)
VH: QVQLVQSGAEVKKPGSSVKVSCKASGGTFSDYAISWVRQAPGQGLEWMGRIIPILGVADYAQKFQGRVTITADKSTRTAYMELSSLRSEDTAVYYCARNWADAFDIWGQGTMVTVSS
VL: DIQLTQSPSSLSASVGDRVTITCRASQGISSVLAWYQQKPGKAPKLLIYDASSLESGVPSRFSGSGSGTDFTLTISSLQPEDFATYYCQQFDSSITFGQGTKLEIK
notes: as for B1
B3: Refmab #1 (antibody, V domains shown)
VH: EVQLVQSGAEVKKPGSSVKVSCKASGYTITDSNIHWVRQAPGQSLEWIGYIYPYNGGTDYNQKFKNRATLTVDNPTNTAYMELSSLRSEDTAFYYCVNGNPWLAYWGQGTLVTVSS
VL: DIQLTQSPSTLSASVGDRVTITCRASESLDNYGIRFLTWFQQKPGKAPKLLMYAASNQGSGVPSRFSGSGSGTEFTLTISSLQPDDFATYYCQQTKEVPWSFGQGTKVEVK
notes: The alanine scan used IgG or Fab; also called hP67.6

Sequence of human CD33 V136A (P20138 18-364 V136A limits assumed): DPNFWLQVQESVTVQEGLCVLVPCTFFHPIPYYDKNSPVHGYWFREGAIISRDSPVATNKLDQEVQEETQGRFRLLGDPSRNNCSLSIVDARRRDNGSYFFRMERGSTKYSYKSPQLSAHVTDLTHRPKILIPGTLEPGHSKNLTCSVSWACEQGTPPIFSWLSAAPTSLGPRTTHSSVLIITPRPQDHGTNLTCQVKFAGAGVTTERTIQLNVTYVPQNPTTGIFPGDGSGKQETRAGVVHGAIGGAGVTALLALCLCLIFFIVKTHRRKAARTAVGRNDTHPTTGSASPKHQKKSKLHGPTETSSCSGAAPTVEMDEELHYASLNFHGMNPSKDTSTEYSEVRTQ
Sequence of human CD33 T142A (P20138 18-364 T142A limits assumed): as the sequence (P20138 18-364 V136A limits assumed) above, with A119V, T125A counted along it
Sequence of human CD33 H143A (P20138 18-364 H143A limits assumed): as the sequence (P20138 18-364 V136A limits assumed) above, with A119V, H126A counted along it
Sequence of human CD33 Y129A (P20138 18-364 Y129A limits assumed): as the sequence (P20138 18-364 V136A limits assumed) above, with Y112A, A119V counted along it
Sequence of human CD33 D107A (P20138 18-364 D107A limits assumed): as the sequence (P20138 18-364 V136A limits assumed) above, with D90A, A119V counted along it
Sequence of human CD33 Y116A (P20138 18-364 Y116A limits assumed): as the sequence (P20138 18-364 V136A limits assumed) above, with Y99A, A119V counted along it
Sequence of human CD33 C163A (P20138 18-364 C163A limits assumed): as the sequence (P20138 18-364 V136A limits assumed) above, with A119V, C146A counted along it
Sequence of human CD33 R110A (P20138 18-364 R110A limits assumed): as the sequence (P20138 18-364 V136A limits assumed) above, with R93A, A119V counted along it

The target in the first assay is human CD33 S135A (human, UniProt P20138 18-364). Put plainly: flow cytometry on HEK293-T, alanine scan. Background: In flow cytometry, cells or beads pass a laser one at a time.
Sequence of human CD33 S135A (P20138 18-364 S135A limits assumed): as the sequence (P20138 18-364 V136A limits assumed) above, with S118A, A119V counted along it
Method: (§1) An alanine scan on human CD33 was performed to the determine the residues on CD33 that are involved in binding to the antibodies investigated. […] Briefly, a mutation library of CD33 was created by high-throughput, site-directed mutagenesis. Each residue was individually mutated to alanine, with alanine codons mutated to serine. The mutant library was arrayed in 384-well microplates and transiently transfected into HEK293-T. Following transfection, cells were incubated with the indicated antibodies (IgG or Fab) at concentrations pre-determined using an independent immunofluorescence titration curve on wild type CD33. […] Binding of each antibody to each mutant clone was determined in duplicates. For each point, background fluorescence was subtracted from the raw data, which were then normalized to antibody reactivity with wild type CD33.
(§2) Critical residues for antibody binding (outlined in dark grey) were residues whose mutations led to a binding of the test Abs of less than 20%. Additional secondary residues (outlined in light grey) were identified that led to a binding of the test Abs of between 20 and 40% as compared to the wild type CD33.
Take B1: the “Mean % WT Binding” value is 109 % WT binding.
As to B2, the “Mean % WT Binding” value came to 120 % WT binding.
The same measure, in the same setting: under B3 stands 98.6 % WT binding.

The next assay concerns the target human CD33 H143A (human, UniProt P20138 18-364). Put plainly: flow cytometry on HEK293-T, alanine scan.
Method: as §1, §2
As for B1, the “Mean % WT Binding” value came to 106 % WT binding.
On the same count and under the same terms, with B2 the figure was 104 % WT binding; with B3, 88.8 % WT binding.

In a further assay the target is human CD33 G123A (human, UniProt P20138 18-364). Put plainly: flow cytometry on HEK293-T, alanine scan.
Sequence of human CD33 G123A (P20138 18-364 G123A limits assumed): as the sequence (P20138 18-364 V136A limits assumed) above, with G106A, A119V counted along it
Method: as §1, §2
In the case of B1, the “Mean % WT Binding” value amounted to 97.9 % WT binding.
In the case of B2, the “Mean % WT Binding” value was 82 % WT binding.
Turning to B3, the “Mean % WT Binding” value amounted to 107 % WT binding.

Another assay deals with human CD33 E121A (human, UniProt P20138 18-364). In words: flow cytometry on HEK293-T, alanine scan.
Sequence of human CD33 E121A (P20138 18-364 E121A limits assumed): as the sequence (P20138 18-364 V136A limits assumed) above, with E104A, A119V counted along it
Method: as §1, §2
As for B1, the “Mean % WT Binding” value was 77.3 % WT binding.
For the molecule B2, the “Mean % WT Binding” value amounted to 109 % WT binding.
For the molecule B3, the “Mean % WT Binding” value worked out at 87.7 % WT binding.

The next assay concerns the target human CD33 C163A (human, UniProt P20138 18-364). Put plainly: flow cytometry on HEK293-T, alanine scan.
Method: as §1, §2
As for B1, the “Mean % WT Binding” value is 43.3 % WT binding.
The same measure, in the same setting: under B2 stands 97.7 % WT binding; under B3, 84.6 % WT binding.

For the next assay, the target named is human CD33 H137A (human, UniProt P20138 18-364). Put plainly: flow cytometry on HEK293-T, alanine scan.
Sequence of human CD33 H137A (P20138 18-364 H137A limits assumed): as the sequence (P20138 18-364 V136A limits assumed) above, with A119V, H120A counted along it
Method: as §1, §2
On to B1, for which the “Mean % WT Binding” value came to 108 % WT binding.
Take B2: the “Mean % WT Binding” value was found to be 120 % WT binding.
Turning to B3, the “Mean % WT Binding” value came out at 83.8 % WT binding.

In a further assay the target is human CD33 T162A (human, UniProt P20138 18-364). Put plainly: flow cytometry on HEK293-T, alanine scan.
Sequence of human CD33 T162A (P20138 18-364 T162A limits assumed): as the sequence (P20138 18-364 V136A limits assumed) above, with A119V, T145A counted along it
Method: as §1, §2
For B1, the “Mean % WT Binding” value worked out at 79.9 % WT binding.
Take B2: the “Mean % WT Binding” value worked out at 102 % WT binding.
For the molecule B3, the “Mean % WT Binding” value came out at 86.9 % WT binding.

The target of the next assay is human CD33 P150A (human, UniProt P20138 18-364). Put plainly: flow cytometry on HEK293-T, alanine scan.
Sequence of human CD33 P150A (P20138 18-364 P150A limits assumed): as the sequence (P20138 18-364 V136A limits assumed) above, with A119V, P133A counted along it
Method: as §1, §2
Take B1: the “Mean % WT Binding” value was 103 % WT binding.
As for B2, the “Mean % WT Binding” value was found to be 112 % WT binding.
B3: the “Mean % WT Binding” value is 78.4 % WT binding.

The target in the next assay is human CD33 K126A (human, UniProt P20138 18-364). Put plainly: flow cytometry on HEK293-T, alanine scan.
Sequence of human CD33 K126A (P20138 18-364 K126A limits assumed): as the sequence (P20138 18-364 V136A limits assumed) above, with K109A, A119V counted along it
Method: as §1, §2
For the molecule B1, the “Mean % WT Binding” value was determined as 212 % WT binding.
On to B2, for which the “Mean % WT Binding” value amounted to 121 % WT binding.
Turning to B3, the “Mean % WT Binding” value is 100 % WT binding.

The target in another assay is human CD33 I147A (human, UniProt P20138 18-364). In words: flow cytometry on HEK293-T, alanine scan.
Sequence of human CD33 I147A (P20138 18-364 I147A limits assumed): as the sequence (P20138 18-364 V136A limits assumed) above, with A119V, I130A counted along it
Method: as §1, §2
Consider B1, for which the “Mean % WT Binding” value was 58.7 % WT binding.
For B2, the “Mean % WT Binding” value was determined as 92.2 % WT binding.
For the molecule B3, the “Mean % WT Binding” value was 71.6 % WT binding.

The next assay concerns the target human CD33 T142A (human, UniProt P20138 18-364). In words: flow cytometry on HEK293-T, alanine scan.
Method: as §1, §2
Consider B1, for which the “Mean % WT Binding” value is 88.8 % WT binding.
On to B2, for which the “Mean % WT Binding” value was 104 % WT binding.
Consider B3, for which the “Mean % WT Binding” value stood at 85.1 % WT binding.

In another assay the target is human CD33 S131A (human, UniProt P20138 18-364). Put plainly: flow cytometry on HEK293-T, alanine scan.
Sequence of human CD33 S131A (P20138 18-364 S131A limits assumed): as the sequence (P20138 18-364 V136A limits assumed) above, with S114A, A119V counted along it
Method: as §1, §2
In the case of B1, the “Mean % WT Binding” value was 134 % WT binding.
B2: the “Mean % WT Binding” value was 123 % WT binding.
The same measure, in the same setting: with B3 the figure was 85.9 % WT binding.

The next assay addresses human CD33 Y116A (human, UniProt P20138 18-364). Put plainly: flow cytometry on HEK293-T, alanine scan.
Method: as §1, §2
Consider B1, for which the “Mean % WT Binding” value stood at 5.4 % WT binding.
Take B2: the “Mean % WT Binding” value turned out to be 0.7 % WT binding.
For B3, the “Mean % WT Binding” value stood at 0.9 % WT binding.

The next assay deals with human CD33 A108S (human, UniProt P20138 18-364). In words: flow cytometry on HEK293-T, alanine scan.
Sequence of human CD33 A108S (P20138 18-364 A108S limits assumed): as the sequence (P20138 18-364 V136A limits assumed) above, with A91S, A119V counted along it
Method: as §1, §2
Take B1: the “Mean % WT Binding” value came out at 86.5 % WT binding.
For the molecule B2, the “Mean % WT Binding” value came to 104 % WT binding.
As for B3, the “Mean % WT Binding” value stood at 85.3 % WT binding.

For another assay, the target named is human CD33 H157A (human, UniProt P20138 18-364). In words: flow cytometry on HEK293-T, alanine scan.
Sequence of human CD33 H157A (P20138 18-364 H157A limits assumed): as the sequence (P20138 18-364 V136A limits assumed) above, with A119V, H140A counted along it
Method: as §1, §2
As to B1, the “Mean % WT Binding” value was 97.4 % WT binding.
In the case of B2, the “Mean % WT Binding” value was found to be 115 % WT binding.
Still for that read-out and setting: with B3 the figure was 86.6 % WT binding.

The target in the next assay is human CD33 T152A (human, UniProt P20138 18-364). In words: flow cytometry on HEK293-T, alanine scan.
Sequence of human CD33 T152A (P20138 18-364 T152A limits assumed): as the sequence (P20138 18-364 V136A limits assumed) above, with A119V, T135A counted along it
Method: as §1, §2
Regarding B1, the “Mean % WT Binding” value is 110 % WT binding.
On to B2, for which the “Mean % WT Binding” value is 117 % WT binding.
B3: the “Mean % WT Binding” value turned out to be 86.3 % WT binding.

The target in a further assay is human CD33 S104A (human, UniProt P20138 18-364). Put plainly: flow cytometry on HEK293-T, alanine scan.
Sequence of human CD33 S104A (P20138 18-364 S104A limits assumed): as the sequence (P20138 18-364 V136A limits assumed) above, with S87A, A119V counted along it
Method: as §1, §2
For the molecule B1, the “Mean % WT Binding” value stood at 86.4 % WT binding.
With B2, the “Mean % WT Binding” value was found to be 109 % WT binding.
For B3, the “Mean % WT Binding” value was 89 % WT binding.

The next assay addresses human CD33 V136A (human, UniProt P20138 18-364). In words: flow cytometry on HEK293-T, alanine scan.
Method: as §1, §2
For B1, the “Mean % WT Binding” value came out at 47.7 % WT binding.
On to B2, for which the “Mean % WT Binding” value came to 99.8 % WT binding.
Consider B3, for which the “Mean % WT Binding” value was found to be 64.2 % WT binding.

The next assay addresses human CD33 D107A (human, UniProt P20138 18-364). In words: flow cytometry on HEK293-T, alanine scan.
Method: as §1, §2
On to B1, for which the “Mean % WT Binding” value turned out to be 93 % WT binding.
B2: the “Mean % WT Binding” value is 109 % WT binding.
For B3, the “Mean % WT Binding” value is 87.7 % WT binding.

The target of a further assay is human CD33 R111A (human, UniProt P20138 18-364). Put plainly: flow cytometry on HEK293-T, alanine scan.
Sequence of human CD33 R111A (P20138 18-364 R111A limits assumed): as the sequence (P20138 18-364 V136A limits assumed) above, with R94A, A119V counted along it
Method: as §1, §2
With B1, the “Mean % WT Binding” value turned out to be 94.3 % WT binding.
B2: the “Mean % WT Binding” value turned out to be 108 % WT binding.
Regarding B3, the “Mean % WT Binding” value came to 100 % WT binding.

A further assay has as its target human CD33 Y129A (human, UniProt P20138 18-364). Put plainly: flow cytometry on HEK293-T, alanine scan.
Method: as §1, §2
As to B1, the “Mean % WT Binding” value was 319 % WT binding.
As to B2, the “Mean % WT Binding” value is 137 % WT binding.
In the case of B3, the “Mean % WT Binding” value was found to be 53.2 % WT binding.

Another assay addresses human CD33 R110A (human, UniProt P20138 18-364). Put plainly: flow cytometry on HEK293-T, alanine scan.
Method: as §1, §2
For the molecule B1, the “Mean % WT Binding” value is 88.4 % WT binding.
On to B2, for which the “Mean % WT Binding” value was found to be 109 % WT binding.
For B3, the “Mean % WT Binding” value was found to be 94.9 % WT binding.
